{"source": "the supplement of paper PMC9732359", "assay": "protein stability index of a GFP-peptide fusion (yeast GPS) (PSI 1-4); higher = more stable; sorted into four equal gates, so the index is relative within each strain", "outline": "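Plasmids isolated from each sorting gate were PCR-amplified and Illumina-sequenced, and barcodes assigned the reads to strains. The gates, four of equal size, were set by GFP/Cherry fluorescence ratio on mid-log cultures in leucine-free medium. These cultures were yeast carrying a pooled library of tiled 17-residue yeast protein peptides fused downstream of GFP on a plasmid that also expresses Cherry. The protein stability index is the sum of every gate's read frequency times its gate number.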", "note": "± gives the uncertainty stated by the source.", "data": [{"sequence": "LYYPQKPLGTTRAMEYL [RPB2]", "values": [{"measurement": "protein stability index", "setting": "doa10∆", "result": "2.17 ± 0.089"}, {"measurement": "protein stability index", "setting": "pdr5∆", "result": "2.9 ± 0.15"}, {"measurement": "protein stability index", "setting": "san1∆", "result": "2.05 ± 0.14"}, {"measurement": "protein stability index", "setting": "ubr1∆", "result": "2.83 ± 0.06"}]}, {"sequence": "HDISKTETSNEDEDEDD [SNU114]", "values": [{"measurement": "protein stability index", "setting": "doa10∆", "result": "3.02 ± 0.058"}, {"measurement": "protein stability index", "setting": "pdr5∆", "result": "3.03 ± 0.057"}, {"measurement": "protein stability index", "setting": "san1∆", "result": "2.98 ± 0.039"}, {"measurement": "protein stability index", "setting": "ubr1∆", "result": "3.08 ± 0.037"}]}, {"sequence": "MKNENANPKKLALMTAH [CDC53]", "values": [{"measurement": "protein stability index", "setting": "doa10∆", "result": "2.12 ± 0.039"}, {"measurement": "protein stability index", "setting": "pdr5∆", "result": "2.33 ± 0.046"}, {"measurement": "protein stability index", "setting": "san1∆", "result": "2.09 ± 0.048"}, {"measurement": "protein stability index", "setting": "ubr1∆", "result": "1.79 ± 0.032"}]}, {"sequence": "EHIKQDYVASLNELYQT [NSL1]", "values": [{"measurement": "protein stability index", "setting": "doa10∆", "result": "2.91 ± 0.062"}, {"measurement": "protein stability index", "setting": "pdr5∆", "result": "3.1 ± 0.057"}, {"measurement": "protein stability index", "setting": "san1∆", "result": "2.84 ± 0.047"}, {"measurement": "protein stability index", "setting": "ubr1∆", "result": "2.88 ± 0.053"}]}, {"sequence": "LERIVQIMQNPTHYKIP [RPS18A]", "values": [{"measurement": "protein stability index", "setting": "doa10∆", "result": "2.61 ± 0.1"}, {"measurement": "protein stability index", "setting": "pdr5∆", "result": "3.1 ± 0.11"}, {"measurement": "protein stability index", "setting": "san1∆", "result": "2.9 ± 0.065"}, {"measurement": "protein stability index", "setting": "ubr1∆", "result": "2.74 ± 0.12"}]}, {"sequence": "ALLGDKIYNFGELLHHP [RPN9]", "values": [{"measurement": "protein stability index", "setting": "san1∆", "result": "2.36 ± 0.29"}]}, {"sequence": "DLFSNNNYNSRIQLMND [MED1]", "values": [{"measurement": "protein stability index", "setting": "doa10∆", "result": "3 ± 0.2"}, {"measurement": "protein stability index", "setting": "pdr5∆", "result": "2.9 ± 0.25"}, {"measurement": "protein stability index", "setting": "san1∆", "result": "2.93 ± 0.11"}, {"measurement": "protein stability index", "setting": "ubr1∆", "result": "3.06 ± 0.13"}]}, {"sequence": "IRGKILTGTVVSTKMHR [RPS11A]", "values": [{"measurement": "protein stability index", "setting": "doa10∆", "result": "3 ± 0.066"}, {"measurement": "protein stability index", "setting": "pdr5∆", "result": "2.99 ± 0.051"}, {"measurement": "protein stability index", "setting": "san1∆", "result": "2.79 ± 0.052"}, {"measurement": "protein stability index", "setting": "ubr1∆", "result": "2.9 ± 0.039"}]}, {"sequence": "SVTIISAGNDKMVKAWN [ASC1]", "values": [{"measurement": "protein stability index", "setting": "doa10∆", "result": "2.35 ± 0.22"}]}, {"sequence": "KQYLSASFSLKNGDKPH [RPL6A]", "values": [{"measurement": "protein stability index", "setting": "doa10∆", "result": "2.34 ± 0.057"}, {"measurement": "protein stability index", "setting": "pdr5∆", "result": "1.93 ± 0.045"}, {"measurement": "protein stability index", "setting": "san1∆", "result": "2.43 ± 0.058"}, {"measurement": "protein stability index", "setting": "ubr1∆", "result": "2.96 ± 0.029"}]}, {"sequence": "YDPSIGIFGMDFYVVMN [RPL11A]", "values": [{"measurement": "protein stability index", "setting": "doa10∆", "result": "2.26 ± 0.05"}, {"measurement": "protein stability index", "setting": "pdr5∆", "result": "2.24 ± 0.052"}, {"measurement": "protein stability index", "setting": "san1∆", "result": "2.31 ± 0.055"}, {"measurement": "protein stability index", "setting": "ubr1∆", "result": "2.55 ± 0.037"}]}, {"sequence": "NSAVNNAISNTQDDFTT [SRP54]", "values": [{"measurement": "protein stability index", "setting": "doa10∆", "result": "3.42 ± 0.1"}, {"measurement": "protein stability index", "setting": "pdr5∆", "result": "3.07 ± 0.07"}, {"measurement": "protein stability index", "setting": "san1∆", "result": "3.04 ± 0.064"}, {"measurement": "protein stability index", "setting": "ubr1∆", "result": "3.31 ± 0.045"}]}, {"sequence": "NNTLSRYADAGNIDTKN [RRP43]", "values": [{"measurement": "protein stability index", "setting": "doa10∆", "result": "3.35 ± 0.064"}, {"measurement": "protein stability index", "setting": "pdr5∆", "result": "3.21 ± 0.058"}, {"measurement": "protein stability index", "setting": "san1∆", "result": "3.28 ± 0.041"}, {"measurement": "protein stability index", "setting": "ubr1∆", "result": "3.5 ± 0.054"}]}, {"sequence": "KTMKTFVIHIQEKNFQT [RPB5]", "values": [{"measurement": "protein stability index", "setting": "doa10∆", "result": "2.05 ± 0.091"}, {"measurement": "protein stability index", "setting": "pdr5∆", "result": "1.85 ± 0.072"}, {"measurement": "protein stability index", "setting": "san1∆", "result": "1.88 ± 0.14"}, {"measurement": "protein stability index", "setting": "ubr1∆", "result": "2.56 ± 0.088"}]}, {"sequence": "NFNLKPTKTLTTKERKK [PRP8]", "values": [{"measurement": "protein stability index", "setting": "doa10∆", "result": "1.98 ± 0.049"}, {"measurement": "protein stability index", "setting": "pdr5∆", "result": "2.54 ± 0.074"}, {"measurement": "protein stability index", "setting": "san1∆", "result": "2.19 ± 0.075"}, {"measurement": "protein stability index", "setting": "ubr1∆", "result": "2.12 ± 0.041"}]}, {"sequence": "VGVDQLSIELEGGKNQA [YJL039C/NUP192]", "values": [{"measurement": "protein stability index", "setting": "doa10∆", "result": "3.08 ± 0.27"}, {"measurement": "protein stability index", "setting": "pdr5∆", "result": "3.23 ± 0.16"}, {"measurement": "protein stability index", "setting": "san1∆", "result": "3.06 ± 0.076"}, {"measurement": "protein stability index", "setting": "ubr1∆", "result": "2.46 ± 0.14"}]}, {"sequence": "KLSKEERAARVAAKIAA [RPL5]", "values": [{"measurement": "protein stability index", "setting": "doa10∆", "result": "2.54 ± 0.13"}, {"measurement": "protein stability index", "setting": "pdr5∆", "result": "2.93 ± 0.079"}, {"measurement": "protein stability index", "setting": "san1∆", "result": "2.49 ± 0.2"}, {"measurement": "protein stability index", "setting": "ubr1∆", "result": "2.52 ± 0.078"}]}, {"sequence": "KLSDSKTSNIESVPIYS [BRR2]", "values": [{"measurement": "protein stability index", "setting": "doa10∆", "result": "2.5 ± 0.054"}, {"measurement": "protein stability index", "setting": "pdr5∆", "result": "2.64 ± 0.062"}, {"measurement": "protein stability index", "setting": "san1∆", "result": "2.33 ± 0.042"}, {"measurement": "protein stability index", "setting": "ubr1∆", "result": "2.6 ± 0.054"}]}, {"sequence": "ERTKLQEHTIFTQLKKN [SNU114]", "values": [{"measurement": "protein stability index", "setting": "doa10∆", "result": "1.46 ± 0.057"}, {"measurement": "protein stability index", "setting": "pdr5∆", "result": "2 ± 0.056"}, {"measurement": "protein stability index", "setting": "san1∆", "result": "1.97 ± 0.084"}, {"measurement": "protein stability index", "setting": "ubr1∆", "result": "1.58 ± 0.039"}]}, {"sequence": "GELRDYIEDFLLVIGGN [YJR042W/NUP85]", "values": [{"measurement": "protein stability index", "setting": "doa10∆", "result": "2.23 ± 0.075"}, {"measurement": "protein stability index", "setting": "pdr5∆", "result": "2.38 ± 0.065"}, {"measurement": "protein stability index", "setting": "san1∆", "result": "2.65 ± 0.08"}, {"measurement": "protein stability index", "setting": "ubr1∆", "result": "1.74 ± 0.037"}]}, {"sequence": "FSSSVSLSYMAFPNASK [RRP40]", "values": [{"measurement": "protein stability index", "setting": "doa10∆", "result": "1.65 ± 0.078"}, {"measurement": "protein stability index", "setting": "pdr5∆", "result": "1.76 ± 0.074"}, {"measurement": "protein stability index", "setting": "san1∆", "result": "1.65 ± 0.12"}, {"measurement": "protein stability index", "setting": "ubr1∆", "result": "1.72 ± 0.072"}]}, {"sequence": "IKSKADAWVSAAHYNRE [PRP8]", "values": [{"measurement": "protein stability index", "setting": "doa10∆", "result": "1.79 ± 0.078"}, {"measurement": "protein stability index", "setting": "pdr5∆", "result": "1.48 ± 0.065"}, {"measurement": "protein stability index", "setting": "san1∆", "result": "2.6 ± 0.06"}, {"measurement": "protein stability index", "setting": "ubr1∆", "result": "1.7 ± 0.11"}]}, {"sequence": "LLKSTGLHPFEVAQLGS [RPB4]", "values": [{"measurement": "protein stability index", "setting": "doa10∆", "result": "1.94 ± 0.12"}, {"measurement": "protein stability index", "setting": "pdr5∆", "result": "1.81 ± 0.27"}, {"measurement": "protein stability index", "setting": "ubr1∆", "result": "2.73 ± 0.2"}]}, {"sequence": "FFLSIYFFYASRPEYSC [YJL039C/NUP192]", "values": [{"measurement": "protein stability index", "setting": "doa10∆", "result": "1.41 ± 0.056"}, {"measurement": "protein stability index", "setting": "pdr5∆", "result": "1.35 ± 0.13"}, {"measurement": "protein stability index", "setting": "san1∆", "result": "1.19 ± 0.11"}, {"measurement": "protein stability index", "setting": "ubr1∆", "result": "1.38 ± 0.057"}]}, {"sequence": "GIKVSLLGIFDDIFIPQ [RPC25]", "values": [{"measurement": "protein stability index", "setting": "doa10∆", "result": "1.78 ± 0.077"}, {"measurement": "protein stability index", "setting": "pdr5∆", "result": "1.73 ± 0.092"}, {"measurement": "protein stability index", "setting": "san1∆", "result": "2 ± 0.18"}, {"measurement": "protein stability index", "setting": "ubr1∆", "result": "1.77 ± 0.081"}]}, {"sequence": "VDENGDPIWQHQSLGPD [RET1]", "values": [{"measurement": "protein stability index", "setting": "doa10∆", "result": "3.25 ± 0.056"}, {"measurement": "protein stability index", "setting": "pdr5∆", "result": "3.21 ± 0.081"}, {"measurement": "protein stability index", "setting": "san1∆", "result": "3.33 ± 0.042"}, {"measurement": "protein stability index", "setting": "ubr1∆", "result": "3.27 ± 0.084"}]}, {"sequence": "REVENSVSLLNSDIANL [SMC1]", "values": [{"measurement": "protein stability index", "setting": "doa10∆", "result": "2.8 ± 0.063"}, {"measurement": "protein stability index", "setting": "pdr5∆", "result": "2.59 ± 0.077"}, {"measurement": "protein stability index", "setting": "san1∆", "result": "2.99 ± 0.07"}, {"measurement": "protein stability index", "setting": "ubr1∆", "result": "2.86 ± 0.072"}]}, {"sequence": "EHAKWGPAAAIEFEYDP [RPB3]", "values": [{"measurement": "protein stability index", "setting": "doa10∆", "result": "2.54 ± 0.078"}, {"measurement": "protein stability index", "setting": "pdr5∆", "result": "3.01 ± 0.074"}, {"measurement": "protein stability index", "setting": "san1∆", "result": "2.36 ± 0.07"}, {"measurement": "protein stability index", "setting": "ubr1∆", "result": "3.09 ± 0.075"}]}]}
